Assay results: paper PMC9482650, “Quantitative fragmentomics allow affinity mapping of interactomes” (Nature Communications, 2022)

B1: CFTR, P13569 (peptide)
chain: TEEEVQDTRL
B2: SLCO1C1, Q9NYB5 (peptide)
chain: NYWPGKETQL
B3: MAP4, P27816 (peptide)
chain: LDSQIQETSI

target: ARHGEF12, Q9NZN5-2; assay: holdup assay; set-up: key: below the threshold = too weak to quantify, mostly under pKd 3.1 to 4; conditions: plain residues with an end cap or a label only (N-terminal biotin on a linker: ttds)
Sequence (Q9NZN5 other isoform, or with tags, fused parts or gaps): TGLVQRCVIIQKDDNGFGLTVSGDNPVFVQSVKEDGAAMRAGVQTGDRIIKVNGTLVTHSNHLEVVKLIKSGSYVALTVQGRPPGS

pKd	Binder
3.52	B1
4.94	B2
4.33	B3

target: DLG2_2, Q15700; assay: holdup assay; set-up: key: below the threshold = too weak to quantify, mostly under pKd 3.1 to 4; conditions: plain residues with an end cap or a label only (N-terminal biotin on a linker: ttds)

pKd	Binder
below the threshold	B1
4.9	B2
3.9	B3

target: DLG2_3, Q15700; assay: holdup assay; set-up: key: below the threshold = too weak to quantify, mostly under pKd 3.1 to 4; conditions: plain residues with an end cap or a label only (N-terminal biotin on a linker: ttds)

pKd	Binder
below the threshold	B1
4.69	B2
4.07	B3

target: T1, DLG3_1, Q92796; assay: holdup assay; set-up: key: below the threshold = too weak to quantify, mostly under pKd 3.1 to 4; conditions: plain residues with an end cap or a label only (N-terminal biotin on a linker: ttds)
T1 sequence (Q92796 125-227, limits assumed, looked up): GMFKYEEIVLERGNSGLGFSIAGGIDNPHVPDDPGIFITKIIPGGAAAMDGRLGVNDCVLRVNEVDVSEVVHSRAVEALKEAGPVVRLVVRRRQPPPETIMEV

pKd	Binder
below the threshold	B1
3.9	B2
below the threshold	B3

target: FRMPD2_1, Q68DX3; assay: holdup assay; set-up: key: below the threshold = too weak to quantify, mostly under pKd 3.1 to 4; conditions: plain residues with an end cap or a label only (N-terminal biotin on a linker: ttds)
Sequence (Q68DX3 770-861): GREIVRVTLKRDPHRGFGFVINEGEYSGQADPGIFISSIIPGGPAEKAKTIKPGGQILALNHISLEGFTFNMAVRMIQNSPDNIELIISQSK

pKd	Binder
below the threshold	B1
4.05	B2
below the threshold	B3

target: GORASP2, Q9H8Y8; assay: holdup assay; set-up: key: below the threshold = too weak to quantify, mostly under pKd 3.1 to 4; conditions: plain residues with an end cap or a label only (N-terminal biotin on a linker: ttds)

pKd	Binder
below the threshold	B1
3.98	B2
below the threshold	B3

target: GRIP2_3, Q9C0E4; assay: holdup assay; set-up: key: below the threshold = too weak to quantify, mostly under pKd 3.1 to 4; conditions: plain residues with an end cap or a label only (N-terminal biotin on a linker: ttds)
Sequence (Q9C0E4 238-339): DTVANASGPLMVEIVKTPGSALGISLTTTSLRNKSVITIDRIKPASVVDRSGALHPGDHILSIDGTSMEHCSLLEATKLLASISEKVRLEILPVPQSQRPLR

pKd	Binder
below the threshold	B1
below the threshold	B2
below the threshold	B3

target: GRIP2_5, Q9C0E4; assay: holdup assay; set-up: key: below the threshold = too weak to quantify, mostly under pKd 3.1 to 4; conditions: plain residues with an end cap or a label only (N-terminal biotin on a linker: ttds)
Sequence (Q9C0E4 544-642): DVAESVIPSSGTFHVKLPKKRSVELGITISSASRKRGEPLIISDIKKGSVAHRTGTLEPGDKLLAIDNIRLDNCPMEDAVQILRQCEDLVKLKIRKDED

pKd	Binder
below the threshold	B1
below the threshold	B2
below the threshold	B3

target: GRIP2_6, Q9C0E4; assay: holdup assay; set-up: key: below the threshold = too weak to quantify, mostly under pKd 3.1 to 4; conditions: plain residues with an end cap or a label only (N-terminal biotin on a linker: ttds)
Sequence (Q9C0E4 648-740): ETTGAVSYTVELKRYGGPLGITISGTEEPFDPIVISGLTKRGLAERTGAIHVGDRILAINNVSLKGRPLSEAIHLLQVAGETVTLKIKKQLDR

pKd	Binder
below the threshold	B1
below the threshold	B2
below the threshold	B3

target: T2, HTRA4, P83105; assay: holdup assay; set-up: key: below the threshold = too weak to quantify, mostly under pKd 3.1 to 4; conditions: plain residues with an end cap or a label only (N-terminal biotin on a linker: ttds)
T2 sequence (P83105 378-476, limits assumed, looked up): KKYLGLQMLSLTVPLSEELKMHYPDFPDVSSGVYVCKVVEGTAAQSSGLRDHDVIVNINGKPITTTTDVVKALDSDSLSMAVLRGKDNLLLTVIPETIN

pKd	Binder
below the threshold	B1
below the threshold	B2
below the threshold	B3

target: Inadl_1, Q8NI35; assay: holdup assay; set-up: key: below the threshold = too weak to quantify, mostly under pKd 3.1 to 4; conditions: plain residues with an end cap or a label only (N-terminal biotin on a linker: ttds)
Sequence (Q8NI35 113-229): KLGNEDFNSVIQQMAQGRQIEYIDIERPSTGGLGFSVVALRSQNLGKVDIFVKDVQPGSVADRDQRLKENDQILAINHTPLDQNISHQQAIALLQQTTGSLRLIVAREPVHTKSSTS

pKd	Binder
below the threshold	B1
4.12	B2
below the threshold	B3

target: LDB3, O75112; assay: holdup assay; set-up: key: below the threshold = too weak to quantify, mostly under pKd 3.1 to 4; conditions: plain residues with an end cap or a label only (N-terminal biotin on a linker: ttds)
Sequence (O75112 1-94): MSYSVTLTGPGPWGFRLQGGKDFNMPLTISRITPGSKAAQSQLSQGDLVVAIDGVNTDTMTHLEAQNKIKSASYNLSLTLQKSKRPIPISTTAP

pKd	Binder
below the threshold	B1
below the threshold	B2
below the threshold	B3

target: T3, LIN7B, Q9HAP6; assay: holdup assay; set-up: key: below the threshold = too weak to quantify, mostly under pKd 3.1 to 4; conditions: plain residues with an end cap or a label only (N-terminal biotin on a linker: ttds)
T3 sequence (Q9HAP6 88-185, limits assumed, looked up): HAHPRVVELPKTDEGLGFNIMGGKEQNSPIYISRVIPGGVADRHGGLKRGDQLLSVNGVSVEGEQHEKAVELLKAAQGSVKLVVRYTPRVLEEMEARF

pKd	Binder
below the threshold	B1
4.68	B2
below the threshold	B3

target: LNX1_3, Q8TBB1; assay: holdup assay; set-up: key: below the threshold = too weak to quantify, mostly under pKd 3.1 to 4; conditions: plain residues with an end cap or a label only (N-terminal biotin on a linker: ttds)
Sequence (Q8TBB1 500-596): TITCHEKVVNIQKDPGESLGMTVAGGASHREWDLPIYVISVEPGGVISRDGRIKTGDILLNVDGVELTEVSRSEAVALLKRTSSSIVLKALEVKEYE

pKd	Binder
below the threshold	B1
below the threshold	B2
below the threshold	B3

target: T4, LRRC7, Q96NW7; assay: holdup assay; set-up: key: below the threshold = too weak to quantify, mostly under pKd 3.1 to 4; conditions: plain residues with an end cap or a label only (N-terminal biotin on a linker: ttds)
T4 sequence (Q96NW7 1440-1537, limits assumed, looked up): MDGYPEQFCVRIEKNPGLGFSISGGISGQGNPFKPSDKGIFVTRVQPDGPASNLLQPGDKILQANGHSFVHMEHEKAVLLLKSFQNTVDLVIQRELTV

pKd	Binder
below the threshold	B1
4.31	B2
below the threshold	B3

target: MAST2, Q6P0Q8; assay: holdup assay; set-up: key: below the threshold = too weak to quantify, mostly under pKd 3.1 to 4; conditions: plain residues with an end cap or a label only (N-terminal biotin on a linker: ttds)
Sequence (Q6P0Q8 1099-1202): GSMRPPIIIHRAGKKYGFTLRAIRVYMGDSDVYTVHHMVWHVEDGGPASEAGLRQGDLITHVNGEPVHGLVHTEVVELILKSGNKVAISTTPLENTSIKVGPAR

pKd	Binder
5.93	B1
6.05	B2
5.97	B3

target: T5, MPP2, Q14168; assay: holdup assay; set-up: key: below the threshold = too weak to quantify, mostly under pKd 3.1 to 4; conditions: plain residues with an end cap or a label only (N-terminal biotin on a linker: ttds)
T5 sequence (Q14168 180-250, limits assumed, looked up): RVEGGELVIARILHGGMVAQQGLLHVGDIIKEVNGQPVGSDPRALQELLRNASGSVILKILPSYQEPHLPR

pKd	Binder
below the threshold	B1
below the threshold	B2
below the threshold	B3

target: T6, MPP6, Q9NZW5; assay: holdup assay; set-up: key: below the threshold = too weak to quantify, mostly under pKd 3.1 to 4; conditions: plain residues with an end cap or a label only (N-terminal biotin on a linker: ttds)
T6 sequence (Q9NZW5 125-219, limits assumed, looked up): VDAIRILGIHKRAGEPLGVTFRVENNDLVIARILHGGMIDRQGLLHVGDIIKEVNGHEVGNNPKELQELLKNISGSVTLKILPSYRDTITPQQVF

pKd	Binder
below the threshold	B1
3.74	B2
below the threshold	B3

target: T7, NHERF3_1, Q5T2W1; assay: holdup assay; set-up: key: below the threshold = too weak to quantify, mostly under pKd 3.1 to 4; conditions: plain residues with an end cap or a label only (N-terminal biotin on a linker: ttds)
T7 sequence (Q5T2W1 4-100, limits assumed, looked up): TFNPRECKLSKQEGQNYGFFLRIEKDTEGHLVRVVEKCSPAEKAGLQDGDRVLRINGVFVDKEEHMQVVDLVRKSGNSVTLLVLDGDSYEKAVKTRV

pKd	Binder
4.78	B1
5.4	B2
4.52	B3

target: T8, NHERF3_4, Q5T2W1; assay: holdup assay; set-up: key: below the threshold = too weak to quantify, mostly under pKd 3.1 to 4; conditions: plain residues with an end cap or a label only (N-terminal biotin on a linker: ttds)
T8 sequence (Q5T2W1 373-468, limits assumed, looked up): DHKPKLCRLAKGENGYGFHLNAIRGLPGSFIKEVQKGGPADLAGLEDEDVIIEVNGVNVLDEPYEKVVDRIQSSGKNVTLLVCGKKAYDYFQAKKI

pKd	Binder
4.08	B1
below the threshold	B2
below the threshold	B3

target: PDLIM1, O00151; assay: holdup assay; set-up: key: below the threshold = too weak to quantify, mostly under pKd 3.1 to 4; conditions: plain residues with an end cap or a label only (N-terminal biotin on a linker: ttds)
Sequence (O00151 1-87): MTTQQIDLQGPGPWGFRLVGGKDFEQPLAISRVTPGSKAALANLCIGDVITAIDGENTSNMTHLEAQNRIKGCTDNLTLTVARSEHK

pKd	Binder
below the threshold	B1
3.73	B2
below the threshold	B3

target: T9, PDZRN3_1, Q9UPQ7; assay: holdup assay; set-up: key: below the threshold = too weak to quantify, mostly under pKd 3.1 to 4; conditions: plain residues with an end cap or a label only (N-terminal biotin on a linker: ttds)
T9 sequence (Q9UPQ7 244-349, limits assumed, looked up): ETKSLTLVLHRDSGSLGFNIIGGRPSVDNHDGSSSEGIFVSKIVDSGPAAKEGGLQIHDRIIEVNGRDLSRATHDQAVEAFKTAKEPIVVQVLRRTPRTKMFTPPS

pKd	Binder
4.01	B1
5.71	B2
4.55	B3

target: SCRIB_2, Q14160; assay: holdup assay; set-up: key: below the threshold = too weak to quantify, mostly under pKd 3.1 to 4; conditions: plain residues with an end cap or a label only (N-terminal biotin on a linker: ttds)
Sequence (Q14160 857-960): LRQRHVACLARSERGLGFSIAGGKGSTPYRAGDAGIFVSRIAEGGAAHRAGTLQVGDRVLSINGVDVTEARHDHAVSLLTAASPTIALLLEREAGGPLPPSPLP

pKd	Binder
below the threshold	B1
4.24	B2
4.45	B3

target: T10, SNTB1, Q13884; assay: holdup assay; set-up: key: below the threshold = too weak to quantify, mostly under pKd 3.1 to 4; conditions: plain residues with an end cap or a label only (N-terminal biotin on a linker: ttds)
T10 sequence (Q13884 107-205, limits assumed, looked up): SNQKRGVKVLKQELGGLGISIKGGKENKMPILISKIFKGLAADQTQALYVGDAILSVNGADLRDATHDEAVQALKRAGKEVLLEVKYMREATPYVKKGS

pKd	Binder
4.2	B1
5.42	B2
4.93	B3

target: TJP1_2, Q07157; assay: holdup assay; set-up: key: below the threshold = too weak to quantify, mostly under pKd 3.1 to 4; conditions: plain residues with an end cap or a label only (N-terminal biotin on a linker: ttds)
Sequence (Q07157 181-274): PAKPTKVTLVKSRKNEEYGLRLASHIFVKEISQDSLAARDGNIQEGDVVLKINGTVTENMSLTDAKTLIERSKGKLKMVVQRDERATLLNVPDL

pKd	Binder
below the threshold	B1
below the threshold	B2
below the threshold	B3

target: T11, TX1BP3, O14907; assay: holdup assay; set-up: key: below the threshold = too weak to quantify, mostly under pKd 3.1 to 4; conditions: plain residues with an end cap or a label only (N-terminal biotin on a linker: ttds)
T11 sequence (O14907 10-122, limits assumed, looked up): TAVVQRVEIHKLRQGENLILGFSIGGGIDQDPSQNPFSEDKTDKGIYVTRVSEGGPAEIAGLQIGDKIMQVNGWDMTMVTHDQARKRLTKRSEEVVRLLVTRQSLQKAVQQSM

pKd	Binder
below the threshold	B1
5.47	B2
3.96	B3
